In a protein production outcome set (Wang et al. 2014):

Test: label from the status in PepcDB records

Row | Sequence | protein production
1 | MQARLSGTSIGLTGPAATKLVRLSRAIEWMSTIGIVLIVGLIGAVFLVPSWTRNLLLTKLGEIGTRLPLDAGNQALAAVIITVPVAVMLWGLVNVRALFAEFARGQVFTTTAATYLQRFGIAVLAQGLLGPVTATALALALSLSNPPGQRLLVLTFSSNDYVSVIVGGVLVAVAAVMREAARLADENASFV | failed
2 | MDRRVTRRGVLAAAGIALAGCTDNGDDQPVRTPLPDEEREPLSNTWRSLGRDDGNTGAVAGIAGPYIEVAAEWQFDVGGAVIGGPVFDENTLYAGTADGEVYALDTHVGAERWSFSADGPVSTTPVVDDGLVAVGSSDGHIYGIDADDGTELWRFDTAVRVDSSPAIDDRYVYAGSVSNAAYAIDRTNGELHWRFDADGSVLASPAVGDETVYVASTDHNVYAIDPDSGEADWQFTTGGEISVAPTLVGDRLYVGSRDSSVYAIDTGSGEGRWSFGLEAAVASSPAVLGDRLFVGAADHNLYALGIGDDSPEGLWRSPTPGAAVGNPAVTDDHVFFGGRDGAVRALRTDGGDRSWEHDVDGGIQGGPALTDRWLYVGTDAGTVYAFRAG | failed
3 | MAISQMKKLAMVFEKDYLDLVLKTLQQSQLVEVRDMKQLKHWQDAFNKGNVKLPQIVQYDLTHQKPLLDDEALQYLLQSQQELENGLASLSAFLPPIGKLTALRQKTPSLSFKQFEERHRQQAAQTALKMMSQKIERLEQLQSKIDQLTEYCQELEKWRSLTVLPQDLAQFHFLSARVGTIPSTANNHFYHQLKQHKGLFIEEVYHTEFEYGLVLFWQAQDTIHLQKYQFKPLLYKEQLLPSEQLRINKELLTNWLAEKDSLLKELRQSQKILAQLQVEIDYVLSQYQRQQTKKQLLGTRHLIALEGWIEADSVNQLKGLMTKTLGDMFYLDSYDVTPDDWEDVPIKLRNHRYIAPFELVTEMYALPKYQEKDPTPFLAPLYLTFFGMMVADLGYGLLLYAVTLAALVFFNLQKTSKRLVTFFNILAISVAIWGLIYGSFFGFDLPVALLSTKTDVITILVVSLLFGFVTLIFGLLLGAWQQVRMKAYATAYTSSLAWTFILLGLLLFILGKNVSGLAYLSVIGKWLALGNAFGILVVSLLKSKSLLGLGSGLYNLYGISSYLSDLVSFTRLMALGLSGASIGAAFNMIVGIFPPVTRFTVGIFIFILLHAINIFLSMLSGYVHGARLIFVEFFGKFYEGGGKAFNPLKLADNYVNVNEETDLEDN | failed
4 | MTTSIQRRISIVIPCLNDAVLLEQCLSSIVAQTLQPEEVIVVDNGSTDNSVEVANRMGARVVHEPLQGITWASAAGYNSARGDLIVRFDADCVIPPDHLSQVNAIWNRTEETPGRTIVALTGTGSFDIPGRMGEWLALCYLGAYRWSTKQALGHYPIFGSNSVISRQWWEDVKDQITLSETFVHEDMYFSFFVRPHETVWFEKNLKLIMHPRALMGVRQSFIRLVRGFYTIKIAWKREPVHQRLESRRDWTLEHHHHHH | failed
5 | MTMTRTPLTQAAATLKARFREIGYTTSGINNVLGPDFVAAMHAGQPAAVRFHLDSLPESDLNLALRAFVLRDQVRVEKLAALLGEALKTLVDASLVEISGEYAQFLIDIRPHLIAGRQQWVFSDADASMTQHVPGPDHVLGVGAASLSLLQATPTSPTGSVLDLGTGSGIQVLGQAGAAQEIIATDVHPRALDFAEATLVDSGIPTQLVEGSWFEPVRGRTFDRIIANPPFVVGPPEIGHVYRDSGMDLDGATALVVKEACAHLNPGGTAHLLGAWVHSADQSWQQRVAEWLPDNGYVAWVIERDAVSPAQYVGTWLSDESLDLRSPEAAARTTAWLNHFEKAKVQGVGFGFIAIQRLEEDEADEKSDILAESMTQYFEDPLGPEIEEYFTRTAWLREQTRDSILSSRFKVRPGVAREQISLADAEEGMGFSPVTLRLTRTDGPRWSHDVDEHVASIVAGLNPHGLPFEEILEMYAMAQGIEGESLHNGAIAALVDLIRHGLVLPADLLDS | failed
6 | MLKFRSHTKELLDGDAIPEKDLFQNLKELDTINKLLGGYKISLSAIDELIKNAAAYKLVDIGCGGGDTLKYMYHWAKRTDKNLSLVGIDIKPVCIEYAKTNTADLPIQYICDDYKQAFNHIEKIDFIHACLFCHHLSEEQLVELIQFALINKTTLVVNDLERNPIAYYSIKWLTAIFSHSYLVKNDAPLSVARGFKKKEWEALLKKAGAATYSVKNKWAFRHQVIVYGNQ | failed
7 | MQHLREWLSDWFRRILPNAQAVSFAILLVVGFIVVVSLAKMLMPVFAAGIIAYLLDGLVEIGERRKLPRLVSVIVVYLLFLALLLVVFIGLLPLLYQQTLQLIEQAPSWVNRGQVLIMELPERYPDYITQEQVNDLIGAIRAELISYGQSMLTYSYASLVSLITVVVYFILVPLLVFFFLKDRDRILGWFTQYLPRDRNLSNRVWKEVDMQIGNYVRGKFVEIVILFAASFVTFSLMGLNYALLLAVLMGISVIIPYVGATLVTFPVMIVAFFQWGVSDDFWYLMLAYAIIQALDGVMLVPLLFSEVVNLHPVAIIVAILFFGGWWGFWGVFFAIPLATLVKAVLSAWPRLGEGEMPAAGGP | failed
8 | MAAGRHCRAPHRCQTHPRLIALGHNHRMNAQLTQELPEFPTWLNARPSTLQEHRGRALVLAFVNASSVWCAERLAELAHWQARSPGRLQVIVVQVPRFDSERLPQRSLKQLRGHGVSAPILLDKDWETWRRFGIESWPTLVLLDAYGRERQRLVGVTGDLDKALTALCEGQPPPSDADLHGVAEREPEPHLALRFPTGLAATEDRLYVADTGHHRVLECTHSGRVLRQFGHGNADLIDGGVGEAAFRRPQGLALERDQLYVADTGNHALRRINLRSGQVDTLCGTGRSGEPVEGPLASPGGSALNYPQGLAIADNQVLIAMAGDNRIWSYHLGRAALTARAGTGALEIRDGSGHLAAFAQPAGLASVQQVAYVCDGLGSSIRTMQLRGDLVQTLVGGQGTWQFGDQDGPRSTARLQFPQAIALAADSPLLWIADTGNGRLRCLRLGGGELTTVALPRRLHGPAGLAVAAGAVWIAETDAHAILRYDLASGALSDVSIDE | failed
9 | DRRVRRNMEIAEIVGLDAHTKMLRTSTVFQWDSVKDEHAMVGTSKALEEIRRQRGWSVRELNEELERRRRVLEFMLSNGIRMFKDVSAVIHTYQVNPERAMKRLGVEEL | failed
10 | QALDVLDDAGRKVLFTEARTANTFAEVAVADDELAMIWELARWSPSAANGQPLRVLFVRTPEGKERLGRHLDEGNRAKTLSAPAVAILAYDVDFHEQMPTVFPARGEMLRAAFADQTEKRESLAAYNSALQTGVFLLAVRAAGLAAGPMAGFDRAGVDEEFFAGTSWRSHLVVNIGHPGADPWFPRLPRVPVEDAVAYA | failed
11 | MQMMSELFASGTVVDAVLIFLLVEAIGVIGYWLWRKHGIAPADFLPGMISGALMLLALRAVLAGAGWMVPTLCLLAAGGAHLVDVLRRWR | failed
12 | MSKNNTLSMSPNFFVSGGVLLAIFTLIHLLYAGLIRPAAEVAMAEKGTEALTAFSVIFKDVEQQVCISLMLFCLFLMLYKLWRLIDEEEIYSRDLLESYDKSEALDVDAALNDLESSAYKETPAYSTWINCIRRFKNTKNVQHAADTIESSVDNIAIQLESGNNMIRYIIWAIPSIGFVGTVRGIGSALAQADKALDGDIAGMTASLGVAFNSTLVALFISLILMLFMHLLNSRQDKMVIRTQESCEKHLLSHLHS | failed
13 | MMEFNVAENGGGSYRPLAILRWVMVVIFVSFGMQKFTLQSAQGIAQFITNSPFISWLSIFGLRGEAYVLGVAEFAIAALLAAGSFSPVLSAVGSFMGVVTFAITWSFFFTTPGVVTWSLSSDPMAWNLTGEFLFKDIVLLCVCAVLFLASLPRSAIRLRTG | failed
14 | MRIVSRDRWFETRHFYNGISLIHEPYVRPFYRCNMWHVQGRERDVLVDSGSGLVSLCEQLPWLTERPLLAVASHTHFDHIAGHHEFAERLAHPAEAEILAAPDGDNTLARAYVGDEMFEAHPECPLCYAEYRVRAAPATRLIDEGDVLDLGDRVLQVLHTPGHSPGGISLWEAATQTLFSGDIVYDGPLVEDAYHSNLDDYASSLARLRELPVRTVHGGHFASFSGERLREMIVAWFRNHDR | failed
15 | MDPLEDVLTLLKTRSHLSASLVAGGRWAVRFDAPRVVKFNAVRRGTCQLEVDGIDEPIDLAEGDCYLLTRPRSFTLRSDPETAPVDGGAVFARAEDGIARAGQGDDVFLIGGGFSFGTRAQELLLDRLPPIVHVPADTPHAETVQWALTAIDQELTHRPMASTLIAEHLAVIMLVHVLRLHLERAPHAVSGWLAGLADPVVATALTCLHRDPARSWTVADLADTAAVSRSTLAARFKATVGQGPLEYLTRWRIELAARQLREGNATLASIAHSVGYGSESALSVAFKRVLGMPPGDYRKHPTMP | failed
16 | MTSSPELARAVAATLARHVTDVVICPGSRNSPLSLELIARDDIRVHTRIDERSAAFLALGLARSSKRHVAVVTTSGTAVANCAPAMIEAAYSHTPLIMVSADRPERLHGTGANQTIEQRGIFNVVDTDHVVDITDLNSISFARNVIHINVALDVPLVDVLPEVGDPVERVREVIEV | failed
17 | MPFERFVQTGRIAKASAGPLKGRLVAIVDVIDQNRVLVDGPLTGVPRQEYRLNNLHLTKYRIKFPYTAPTRIVRKAWTESDLKAQWKVSPWSVKAQNICKRSSLNDFDRFKLRYAKRQRNKLLTIAFNTLKKRTKADGTPRVLKKDRRERLRAEKAKGGKKAAAKK | failed
18 | MSKIWSKEETLWSFALYGTAVGAGTLFLPIQLGSAGAIVLFITALVAWPLTYWPHKALSQFILSANIAPGTGITGAVNHYYGKKIGNLITGLYFLAFFVVVLIYAVAITNSLAEQVAHRTPMTPGLRALLSLGVVLVLNLIFLMGRQVTIKVMGFLVFPLIACFLFLSLYLIRDWHPEHLTSQMQFSPQTLHQVWISIPVMVFAFSHTPIISTFAIDQQEKHGDLAMGKCKKIMKVAYTIICASVLFFVFSCLLAIPATYIETARDQGVTILSALSMVPGAPGWLAVTGIIVAVVAMSKSFLGTYFGVIEGASEIVKSSLGLLGVRKSRAFNRAMSILLVSAFTFAVCFINPNAISMIYAISGPLIAMILFIMPTLSTWLIPALKPYRSVGNAITLVVGLLCVSVMFFG | failed
19 | MSHCSCHDKPQHSLLPAAYRILSITRHTPLEWNFRVAVDFPAHWGQFVEVSLPRVGEAPISVSDYGDGWIDLLIRNLGKVTSALFTLKEGDNVWLRGCYGNGYPVDTLRHKPLLVVAGGTGVAPVKGLMRYFVENPQEIGQLDMILGYKNRDCVLYKEEMATWRGKHNLVLTLDEGEADDRYQIGRVTDRLADMTLSDIDTMQAIVVGPPIMITFTVKMLLQKGLKPEQIWVDYERRMACSVGKCGHCRMGEVYVCTDGPIFNYAVAQRFAD | failed
20 | MEIFKPDYLMIDSMIFFPTLILSFLIKRNYVKLLKSIGIVSPIYLFWDFLATWRNSWTFNPKYVAGIYVIDLPIEEVMFFLVTPFATLLIFDFVMGKVRDKEVKWVPKVVCVAIPLLLLTLPFVYNYSYTFIDLVYLIMSLIVSLLIGRNLLASRNFWIFMGLSYIPFLVFDYFLTSDPVVIYGSHSIVGIRFITIPIEDFIYSFSMITFYTVFYIRGNSLWMKQK | failed
21 | MSNEHQLLVGLLKKLKDDALILPTLPEVAMRVQEVVGRPDSSLKQVAEIIGQDAAISARIIKVANSALYSRGVPAENINSAVTRIGLTQIKSIATSVAMEQLFISTNEMVWEVMDEVWRTSIDVTAAACSLLQIYNKKHPGSGLNYDTLTLAGLVHNIGALPVLTEAEAHPEMFTTIEHLRSLVRKMQGPIGRAVLKSWDFAPEVMEVVERWADLPYLGDHVSYLDFIRAAAFYTGELRAGNELEQRLDVFVKRGLPVSPEDLGSDAFLDSYHSIKASYE | not failed
22 | MQRLEVREPVPYPILVGEGVLKEVPPLAGPAALLFDRRVEGFAQEVAKALGVRHLLGLPGGEAAKSLEVYGKVLSWLAEKGLPRNATLLVVGGGTLTDLGGFVAATYLRGVAYLAFPTTTLAIVDASVGGKTGINLPEGKNLVGAFHFPQGVYAELRALKTLPLPTFKEGLVEAFKHGLIAGDEALLKVEDLTPQSPRLEAFLARAVAVKVRVTEEDPLEKGKRRLLNLGHTLGHALEAQTRHALPHGMAVAYGLLYAALLGRALGGEDLLPPVRRLLLWLSPPPLPPLAFEDLLPYLLRDKKKVSESLHWVVPLAPGRLVVRPLPEGLLREAFAAWREELKGLGLLR | not failed
